Data: IntAct's records for PubMed 24076655

B1: E3 ubiquitin-protein ligase ARIH2 (Homo sapiens), O95376 (parent)
chain: MSVDMNSQGSDSNEEDYDPNCEEEEEEEEDDPGDIEDYYVGVASDVEQQGADAFDPEEYQFTCLTYKESEGALNEHMTSLASVLKVSHSVAKLILVNFHWQVSEILDRYKSNSAQLLVEARVQPNPSKHVPTSHPPHHCAVCMQFVRKENLLSLACQHQFCRSCWEQHCSVLVKDGVGVGVSCMAQDCPLRTPEDFVFPLLPNEELREKYRRYLFRDYVESHYQLQLCPGADCPMVIRVQEPRARRVQCNRCNEVFCFKCRQMYHAPTDCATIRKWLTKCADDSETANYISAHTKDCPKCNICIEKNGGCNHMQCSKCKHDFCWMCLGDWKTHGSEYYECSRYKENPDIVNQSQQAQAREALKKYLFYFERWENHNKSLQLEAQTYQRIHEKIQERVMNNLGTWIDWQYLQNAAKLLAKCRYTLQYTYPYAYYMESGPRKKLFEYQQAQLEAEIENLSWKVERADSYDRGDLENQMHIAEQRRRTLLKDFHDT

Variants of: B1
Conditions: with cul5_human CUL5, Q93034
Chain of cul5_human CUL5, Q93034 (Q93034 whole entry): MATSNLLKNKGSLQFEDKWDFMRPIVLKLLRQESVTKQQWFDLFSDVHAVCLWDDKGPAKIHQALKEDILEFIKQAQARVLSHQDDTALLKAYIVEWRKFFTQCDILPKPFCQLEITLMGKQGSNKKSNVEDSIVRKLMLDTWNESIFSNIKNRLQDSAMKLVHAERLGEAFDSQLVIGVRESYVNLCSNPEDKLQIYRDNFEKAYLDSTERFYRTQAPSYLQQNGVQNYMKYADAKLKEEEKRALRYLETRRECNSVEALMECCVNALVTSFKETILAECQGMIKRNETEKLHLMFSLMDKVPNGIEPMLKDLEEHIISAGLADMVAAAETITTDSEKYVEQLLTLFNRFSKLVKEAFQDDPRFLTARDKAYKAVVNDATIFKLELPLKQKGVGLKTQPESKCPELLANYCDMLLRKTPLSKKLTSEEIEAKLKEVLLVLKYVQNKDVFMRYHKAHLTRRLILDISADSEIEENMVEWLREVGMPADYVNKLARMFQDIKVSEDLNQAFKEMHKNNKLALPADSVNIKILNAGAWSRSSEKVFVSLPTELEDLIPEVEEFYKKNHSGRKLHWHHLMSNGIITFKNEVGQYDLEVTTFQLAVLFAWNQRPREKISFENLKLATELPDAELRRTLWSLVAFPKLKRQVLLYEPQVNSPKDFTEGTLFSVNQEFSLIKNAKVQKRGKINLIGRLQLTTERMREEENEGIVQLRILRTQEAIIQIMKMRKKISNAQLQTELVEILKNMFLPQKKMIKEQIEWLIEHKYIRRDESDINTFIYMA

effect of a mutation on the interaction	Variant
increasing interaction	MSVDMNSQGSDSNEEDYDPNCEEEEEEEEDDPGDIEDYYVGVASDVEQQGADAFDPEEYQFTCLTYKESEGALNEHMTSLASVLKVSHSVAKLILVNFHWQVSEILDRYKSNSAQLLVEARVQPNPSKHVPTSHPPHHCAVCMQFVRKENLLSLACQHQFCRSCWEQHCSVLVKDGVGVGVSCMAQDCPLRTPEDFVFPLLPNEELREKYRRYLFRDYVESHYQLQLCPGADCPMVIRVQEPRARRVQCNRCNEVFCFKCRQMYHAPTDCATIRKWLTKCADDSETANYISAHTKDCPKCNICIEKNGGANHMQCSKCKHDFCWMCLGDWKTHGSEYYECSRYKENPDIVNQSQQAQAREALKKYLFYFERWENHNKSLQLEAQTYQRIHEKIQERVMNNLGTWIDWQYLQNAAKLLAKCRYTLQYTYPYAYYMESGPRKKLFEYQQAQLEAEIENLSWKVERADSYDRGDLENQMHIAEQRRRTLLKDFHDT [C310A]

Variants of: B1
Conditions: with cul5_human CUL5, Q93034
Remark: another data set of the same source

effect of a mutation on the interaction	Variant
increasing interaction	MSVDMNSQGSDSNEEDYDPNCEEEEEEEEDDPGDIEDYYVGVASDVEQQGADAFDPEEYQFTCLTYKESEGALNEHMTSLASVLKVSHSVAKLILVNFHWQVSEILDRYKSNSAQLLVEARVQPNPSKHVPTSHPPHHCAVCMQFVRKENLLSLACQHQFCRSCWEQHCSVLVKDGVGVGVSCMAQDCPLRTPEDFVFPLLPNEELREKYRRYLFRDYVESHYQLQLCPGADCPMVIRVQEPRARRVQCNRCNEVFCFKCRQMYHAPTDCATIRKWLTKCADDSETANYISAHTKDCPKCNICIEKNGGSNHMQCSKCKHDFCWMCLGDWKTHGSEYYECSRYKENPDIVNQSQQAQAREALKKYLFYFERWENHNKSLQLEAQTYQRIHEKIQERVMNNLGTWIDWQYLQNAAKLLAKCRYTLQYTYPYAYYMESGPRKKLFEYQQAQLEAEIENLSWKVERADSYDRGDLENQMHIAEQRRRTLLKDFHDT [C310S]

Variants of: B1
Conditions: with cul5_human CUL5, Q93034
Remark: another data set of the same source

effect of a mutation on the interaction	Variant
decreasing interaction	MSVDMNSQGSDSNEEDYDPNCEEEEEEEEDDPGDIEDYYVGVASDVEQQGADAFDPEEYQFTCLTYKESEGALNEHMTSLASVLKVSHSVAKLILVNFHAQVSEILDRYKSNSAQLLVEARVQPNPSKHVPTSHPPHHCAVCMQFVRKENLLSLACQHQFCRSCWEQHCSVLVKDGVGVGVSCMAQDCPLRTPEDFVFPLLPNEELREKYRRYLFRDYVESHYQLQLCPGADCPMVIRVQEPRARRVQCNRCNEVFCFKCRQMYHAPTDCATIRKWLTKCADDSETANYISAHTKDCPKCNICIEKNGGCNHMQCSKCKHDFCWMCLGDWKTHGSEYYECSRYKENPDIVNQSQQAQAREALKKYLFYFERWENHNKSLQLEAQTYQRIHEKIQERVMNNLGTWIDWQYLQNAAKLLAKCRYTLQYTYPYAYYMESGPRKKLFEYQQAQLEAEIENLSWKVERADSYDRGDLENQMHIAEQRRRTLLKDFHDT [W100A]

Variants of: B1
Conditions: with cul5_human CUL5, Q93034
Remark: another data set of the same source

effect of a mutation on the interaction	Variant
increasing interaction	MSVDMNSQGSDSNEEDYDPNCEEEEEEEEDDPGDIEDYYVGVASDVEQQGADAFDPEEYQFTCLTYKESEGALNEHMTSLASVLKVSHSVAKLILVNFHWQVSEILDRYKSNSAQLLVEARVQPNPSKHVPTSHPPHHCAVCMQFVRKENLLSLACQHQFCRSCWEQHCSVLVKDGVGVGVSCMAQDCPLRTPEDFVFPLLPNEELREKYRRYLFRDYVESHYQLQLCPGADCPMVIRVQEPRARRVQCNRCNEVFCFKCRQMYHAPTDCATIRKWLTKCADDSETANYISAHTKDCPKCNICIEKNGGCNHMQCSKAKHDFCWMCLGDWKTHGSEYYECSRYKENPDIVNQSQQAQAREALKKYLFYFERWENHNKSLQLEAQTYQRIHEKIQERVMNNLGTWIDWQYLQNAAKLLAKCRYTLQYTYPYAYYMESGPRKKLFEYQQAQLEAEIENLSWKVERADSYDRGDLENQMHIAEQRRRTLLKDFHDT [C318A]

Variants of: B1
Conditions: with cul5_human CUL5, Q93034
Remark: another data set of the same source

effect of a mutation on the interaction	Variant
decreasing interaction	MSVDMNSQGSDSNEEDYDPNCEEEEEEEEDDPGDIEDYYVGVASDVEQQGADAFDPEEYQFTCLTYKESEGALNEHMTSLASVAKASHSVAKLILVNFHAQVSEILDRYKSNSAQLLVEARVQPNPSKHVPTSHPPHHCAVCMQFVRKENLLSLACQHQFCRSCWEQHCSVLVKDGVGVGVSCMAQDCPLRTPEDFVFPLLPNEELREKYRRYLFRDYVESHYQLQLCPGADCPMVIRVQEPRARRVQCNRCNEVFCFKCRQMYHAPTDCATIRKWLTKCADDSETANYISAHTKDCPKCNICIEKNGGCNHMQCSKCKHDFCWMCLGDWKTHGSEYYECSRYKENPDIVNQSQQAQAREALKKYLFYFERWENHNKSLQLEAQTYQRIHEKIQERVMNNLGTWIDWQYLQNAAKLLAKCRYTLQYTYPYAYYMESGPRKKLFEYQQAQLEAEIENLSWKVERADSYDRGDLENQMHIAEQRRRTLLKDFHDT [L84A;V86A;W100A]

Variants of: B1
Conditions: with cul5_human CUL5, Q93034
Remark: another data set of the same source

effect of a mutation on the interaction	Variant
increasing interaction	MSVDMNSQGSDSNEEDYDPNCEEEEEEEEDDPGDIEDYYVGVASDVEQQGADAFDPEEYQFTCLTYKESEGALNEHMTSLASVLKVSHSVAKLILVNFHWQVSEILDRYKSNSAQLLVEARVQPNPSKHVPTSHPPHHCAVCMQFVRKENLLSLACQHQFCRSCWEQHCSVLVKDGVGVGVSCMAQDCPLRTPEDFVFPLLPNEELREKYRRYLFRDYVESHYQLQLCPGADCPMVIRVQEPRARRVQCNRCNEVFCFKCRQMYHAPTDCATIRKWLTKCADDSETANYISAHTKDCPKANICIEKNGGCNHMQCSKCKHDFCWMCLGDWKTHGSEYYECSRYKENPDIVNQSQQAQAREALKKYLFYFERWENHNKSLQLEAQTYQRIHEKIQERVMNNLGTWIDWQYLQNAAKLLAKCRYTLQYTYPYAYYMESGPRKKLFEYQQAQLEAEIENLSWKVERADSYDRGDLENQMHIAEQRRRTLLKDFHDT [C300A]

Variants of: B1
Conditions: with ub2l3_human UBE2L3, P68036

effect of a mutation on the interaction	Variant
disrupting interaction	MSVDMNSQGSDSNEEDYDPNCEEEEEEEEDDPGDIEDYYVGVASDVEQQGADAFDPEEYQFTCLTYKESEGALNEHMTSLASVLKVSHSVAKLILVNFHWQVSEILDRYKSNSAQLLVEARVQPNPSKHVPTSHPPHHCAVCMQFVRKENLLSLACQAQFCRSCWEQHCSVLVKDGVGVGVSCMAQDCPLRTPEDFVFPLLPNEELREKYRRYLFRDYVESHYQLQLCPGADCPMVIRVQEPRARRVQCNRCNEVFCFKCRQMYHAPTDCATIRKWLTKCADDSETANYISAHTKDCPKCNICIEKNGGCNHMQCSKCKHDFCWMCLGDWKTHGSEYYECSRYKENPDIVNQSQQAQAREALKKYLFYFERWENHNKSLQLEAQTYQRIHEKIQERVMNNLGTWIDWQYLQNAAKLLAKCRYTLQYTYPYAYYMESGPRKKLFEYQQAQLEAEIENLSWKVERADSYDRGDLENQMHIAEQRRRTLLKDFHDT [H158A]
